In publication PMC3074137:
Values belong to the molecule of their own block, whether it stands above or below them.

How the values were obtained:
[1] = target: eIF4G-MC (83.5 kDa fragment of human eIF4GI, residues 712-1451) (human) (UniProt Q04637); experiment: SAXS
His6-eIF4G-MC (human) = His6-eIF4G-MC (human) (UniProt Q04637); experiment: SPR
eIF4G-MC (F978A) (human) = eIF4G-MC (F978A) (human) (UniProt Q04637); experiment: ITC
[2] = target: eIF4G-MC (83.5 kDa fragment of human eIF4GI, residues 712-1451) (human) (UniProt Q04637); experiment: ITC
[3] = target: eIF4G-MC (83.5 kDa fragment of human eIF4GI, residues 712-1451) (human) (UniProt Q04637); experiment: SEC
eIF4A (human) = eIF4A (human) (UniProt P60842); experiment: ITC
eIF4A;eIF4B = eIF4A;eIF4B (human;human, UniProt P60842;P23588 1-406;1-611, |); experiment: pull-down
eIF4B = eIF4B (human, UniProt P23588 1-611); experiment: pull-down
eIF4A;eIF4BΔC = eIF4A;eIF4BΔC (human;human, UniProt P60842;P23588 1-406;1-431, |); experiment: pull-down

eIF4G-MC (83.5 kDa fragment of human eIF4GI, residues 712-1451) (human), sequence (Q04637 711-1450): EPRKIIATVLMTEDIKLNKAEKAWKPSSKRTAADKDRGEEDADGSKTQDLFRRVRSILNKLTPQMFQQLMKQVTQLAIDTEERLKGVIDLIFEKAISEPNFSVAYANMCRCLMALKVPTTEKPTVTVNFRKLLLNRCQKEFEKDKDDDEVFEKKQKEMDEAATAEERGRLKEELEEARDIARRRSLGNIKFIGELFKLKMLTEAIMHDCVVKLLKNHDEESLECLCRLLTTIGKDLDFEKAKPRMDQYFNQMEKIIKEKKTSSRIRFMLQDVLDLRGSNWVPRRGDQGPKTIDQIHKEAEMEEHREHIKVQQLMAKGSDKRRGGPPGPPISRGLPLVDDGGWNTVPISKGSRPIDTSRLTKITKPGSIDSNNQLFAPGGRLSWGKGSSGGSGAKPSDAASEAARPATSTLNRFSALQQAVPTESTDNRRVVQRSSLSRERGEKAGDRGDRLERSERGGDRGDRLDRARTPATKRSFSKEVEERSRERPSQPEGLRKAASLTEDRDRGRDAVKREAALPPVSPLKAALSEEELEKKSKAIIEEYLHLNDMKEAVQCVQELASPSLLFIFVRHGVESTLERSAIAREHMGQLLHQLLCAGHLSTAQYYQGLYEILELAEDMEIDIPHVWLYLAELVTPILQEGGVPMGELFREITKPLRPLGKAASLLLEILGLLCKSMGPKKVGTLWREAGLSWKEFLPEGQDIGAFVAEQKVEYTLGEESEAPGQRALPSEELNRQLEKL
eIF4G-MC (F978A) (human), sequence (Q04637 711-1450 F977A): as the sequence (Q04637 711-1450) above, with F267A counted along it
eIF4B, sequence (P23588 whole entry): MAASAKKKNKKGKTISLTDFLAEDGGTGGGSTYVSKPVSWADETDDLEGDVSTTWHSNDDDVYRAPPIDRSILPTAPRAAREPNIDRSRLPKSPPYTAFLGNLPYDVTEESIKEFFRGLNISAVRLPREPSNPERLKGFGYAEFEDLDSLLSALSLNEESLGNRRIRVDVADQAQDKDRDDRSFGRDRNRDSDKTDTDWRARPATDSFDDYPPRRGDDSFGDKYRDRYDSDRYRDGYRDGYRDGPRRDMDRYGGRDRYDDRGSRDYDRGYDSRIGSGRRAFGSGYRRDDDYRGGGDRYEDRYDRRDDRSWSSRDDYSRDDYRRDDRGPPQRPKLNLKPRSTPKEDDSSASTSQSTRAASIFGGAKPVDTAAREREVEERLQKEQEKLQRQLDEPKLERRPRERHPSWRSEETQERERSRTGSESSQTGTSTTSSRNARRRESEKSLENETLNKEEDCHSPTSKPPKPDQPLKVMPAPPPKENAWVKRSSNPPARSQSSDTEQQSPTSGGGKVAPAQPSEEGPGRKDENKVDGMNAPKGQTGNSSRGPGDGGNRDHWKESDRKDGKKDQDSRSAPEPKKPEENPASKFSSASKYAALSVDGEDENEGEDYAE
His6-eIF4G-MC (human), sequence (Q04637 711-1450): as the sequence (Q04637 711-1450) above

stoichiometry N (eIF4A per eIF4G-MC) [1]: 1 | KD high-affinity site (His6-eIF4G-MC (human)): 67 nM | Kd (eIF4G-MC (F978A) (human)): 417 nM | stoichiometry N (eIF4A per eIF4G-MC (F978A)) (eIF4G-MC (F978A) (human)): 1 | KD high-affinity site [2]: 50 nM | KD low-affinity site [2]: 775 nM | stoichiometry N (eIF4A per eIF4G-MC) [3]: 1
Molecule: eIF4A (from UniProt P60842 1-406) (enzyme)

KD high-affinity site (eIF4A (human)): 42 nM | KD low-affinity site (eIF4A (human)): 1600 nM
Molecule: eIF4G-MC (83.5 kDa fragment of human eIF4GI, residues 712-1451) (from UniProt Q04637-8 712-1451) (domain or fragment)

B1: pU30-biotin (ssRNA)
RNA: UUUUUUUUUUUUUUUUUUUUUUUUUUUUUU
binding result (eIF4A;eIF4B): binds | binding result (eIF4B): binds | binding result (eIF4A;eIF4BΔC): binds
